According to the DeepSol protein solubility set:

Test: soluble on expression in E. coli; label from the status in PepcDB or PDB records

Row | Sequence | soluble on expression in E. coli
1 | GMTASTAPQTEPHKTSAPESGPVMLLVATIKGAWFLASDPARRTWELRGPVFLGHTIHHIVQDPREPERMLMAARTGHLGPTVFRSDDGGGNWTEATRPPAFNKAPEGETGRVVDHVFWLTPGHASEPGTWYAGTSPQGLFRSTDHGASWEPVAGFNDHPMRRAWTGGEQDGTPDGPKMHSILVDPRDPKHLYIGMSSGGVFESTDAGTDWKPLNRGCAANFLPDPNVEFGHDPHCVVQHPAAPDILYQQNHCGIYRMDRREGVWKRIGDAMPREVGDIGFPIVVHQRDPRTVWVFPMDGSDVWPRVSPGGKPAVYVTRDAGESWQRQDRGLPTDQAWLTVKRQAMTADAHAPVGVYFGTTGGEIWASADEGEHWQCIASHLPHIYAVQSARPV | soluble
2 | TDESRGKARAAGVESAVLLENKSRLLPLAKEAKIALVGPLATSPDILGGWNVYGEEKDGINVETGLREVFETVEVVSTEYTELSEEDKVAVKAAVQNMDVVVLALGEKNEWGGEAGSLATIRLPEAQYQLAKFVQTLGKPVVITLFNGRPLEVKELAESSDALLELWFPGTEAGRVTADLLSGASNPSGKLSMSFPQTTGQIPVYYNHLRTGRPQTPENKGERYVSHYLDIPNEPFYPFGYGKSYSEF | not soluble
3 | MGTSVTPNIFDFLIKIDPFDKLPEPVVESIANSVKVKYLVRGETIGFSALCDQRYLYIIRTGAIEQRTPNGELRARLGQDDQFGFTFLDPLENAEDGYQAEAIEDSLLYLIPHSELKLVSEEHPEFADYFAAQANVRLSSAVKYVCRKEEKGLFFRTVGEIASENIAIVDVNDSIRSVAQTMCGKQRSSCAVVMKEGEIIGLVTDRDMTKSVVAQDMDTNQPIADVMTPNPVLIEDDAKVIQAISLMLQYNIRCLPVVHGKQVKGLLTTTHLVHNHRTQSLFLIEKIKYASSLNALAALKEERQTIFQALVESGVSAEIQGRVMSMIMDAFTRRIIQLNEELLGPPPCDYAWLVAGSHARNEVHMLSDQDSAIVLSDDATEEHKLYFTHLAMRVCNGLAACGYPLCDGKYMAASPKWCQPIRRWKEYYQKWVASPEYNKLLSISVFLEVRAIHGNREFVDQIQQHLHDCIQKSPSFIPALVRDAIDTQPPLGIFNNLVLEKGGENSNTLNIKKYALNLIIDLARIFSLAAGGSLTGTEERFRYAAQHGTLSKDSVENIIGAYRFITQVRFRHQLNAILAGTTPDNHIAPDDFSSFERKHLKDAFKIISELQDVAKLKFVKGA | not soluble
4 | MSLDGTVLLIDYFEYEREKTKIIFDNIGEYDFIEVENLKKFYSIFKDLDSITLIIMDIAFPVEKEGLEVLSAIRNNSRTANTPVIIATKSDNPGYRHAALKFKVSDYILKPYPTKRLENSVRSVLKICQRFRYEFDSAHVISMSIEDYISKEFKVASRAGQSLSVILMAPVGLEKEPSEQSTQISSELQDQIQNLAIEKVKLSLRSTDTAILNANRDILVILPFTNAAGAQKVLQKIQDNVREGLKSLNINYDDYYYAVSVTFPNDGKTFQSLMEKAVKKVEDKIMLEKITSIGVNILDNARNSYKKFNKEGHHHHHH | soluble
5 | MSLVTQQALPPVVSSAASPSPQASAPLPTDKTAIAIVLQGFGYSDALTYDVLSRIPAPVAVGISPYVSNISDIIARAHASHREVYVTLPMQSAHPERVDEGPHALGYGNSAADDQRELEWCLSRAAGAEGLTDASENGDDQPGGGYATSPDFSPIASAISSKGLLYLAGSAQDGRRTRGMTATAWIDGDTDAATLDSRLAALLPQDGKPAKILLMVGPITPVMIDRLANWLKGPAAQNFVVVPPSAFADSGISNDQAANLSPSNPVAPLEGHHHHHH | soluble
6 | GAMAQKNEDECAVCRDGGELICCDGCPRAFHLACLSPPLREIPSGTWRCSSCLQATVQEVQPRAEE | soluble
7 | SSGGGTETPVACDAAQGGKKRDSLGTPGAAHLIIKDLGEIHSRLLDHRPVTQGEIRYFVKEFEEKRGLRELRVLKNLENTIQETNECLLPKCRETMECGLGETLQRLQAANDSICRLQQREQERKKVINDYLTASEKRRLVQWEEFVSGQPQRRAEVDEEHRRAVERLREQYAAMEKDLAKFSTF | soluble
8 | AHHHHHHGSPITKVTRNYQITIPAEIRKALGIKEGELLEVRLENGKIIIERLKKERKTLKLGKKLTLEEIEKAIEEGMKQCMQMHAVIDTNVLIYDTFSDSEFHKESRSLLNSLDRWYIPSIVLQEYVWFFRSQGFSSREAKIMLSEYISDPRFRGLVEDHNVILRAIDILERENLSLSRFNDMIILVHAIEKGTLATFDQKLRKLARKLSVEILP | soluble
9 | SSGRSVRAETRSRAKDDIKKVMAAIEKVRKWEKKWVTVGDTSLRIFKWVPVTDSKEKEKSKSNSSAAREPNGFPSDASANSSLLLEFQDENSNQSSVSDVYQLKVDSSTNSSPSPQQSESLSPAHTSDFRTDDSQPPTLGQEILEEPSLPSSEVADEPPTLTKEEPVPLETQVVEEEEDSGAPPLKRFCVDQPTVPQTASES | soluble
10 | MAHHHHHHMLCTFTTLHERIRILTDAHQLILPEELEAEFPDEAQLIKSMLAANPLQRPQIRKFLRQINKLIVALEAQESDEEAEKPPPPSPLDGTEHSESRNGNDEAATAALVDDSASALATATATSKLGNTPLSTSVAAASSSRGRPVAADLASGGHADSFSDVQDSFSSPLGEQKSRVALLPVFHSEAATGTSVAATSPMAATTSVHDTNAASAGKHVTRRGDSLASLHASTMVKRGNTYHHRRRGSASPNMEAEIGRLHICEMVATGSASRQGFFANDPYGLPTTPVMYTEDADLSTILKRDLQDRTVSAPD | not soluble
11 | MGSDKIHHHHHHMADIALFQDDAFSLSSLTAAINEQPHVPGRVGALGLFEEDGITTTTIQIERDGDTLSLVSAGERGSPSAIVVGSKRTMIPFNTVHLPQRAFVKADEIQNLRAFGSETELEALQTVVNRRLAKLRRQLDATHEFHRIGAIKGAVLDADGKTVLIDLLQYFGIEQTVIPFELGKADTEIRVKCLEVQDAIEDALGATTYTGVRVLCGRAFWNKLIVAKTVKETYLATAMAASLRGDAREALDFGGCTFERYRGRVGDIGYVADDEAYAVPEGVPELFVTRFAPADYVEAVNTTGLPYYAKQELAQFGKGVDIEAQSNPVHLCTRPKAIVKLKA | not soluble
12 | MPLKAYRPPEDPGLWDTYLEWLERALKVAEAHPTTLEYLAHPKRLVTLSLPVVMDDGKVRIFQGYRVVHDIARGPAKGGVRLDPGVTLGQTAGLAAWMTLKAAVYDLPFGGAAGGIAVDPKGLSPQELERLVRRYTAELVGLIGPDSDILGPDLGADQQVMAWIMDTYSMTVGSTVPGVVTGKPHALGGSEGRDDAAGLGALLVLEALAKRRGLDLRGARVVVQGLGQVGAAVALHAERLGMRVVAVATSMGGMYAPEGLDVAEVLSTYEATGFLPRLDLAPEEVFGLEAEVLVLAAREGALDGDRARQVQAQAVVKVANFGLTPEAEAYLLGKGALVVPDLLSGGGGLLASYLEWVQDLNMFFWSPEEVRERFETRVARVVDAVCRRAERGGLDLRMGALALALERLDEATRLRGVYP | soluble
13 | MGSDKIHHHHHHMAATNYSQTIKNDTKDFITTAILQLLGIQKTFEKPKNLAQLTVSNVCKRAGVSRMAFYRNFESIDQVIYQYYQPQISQSFEIIRQNVSASSKIENQLKFFEEFKDDLFLSESQGYEPIIRQIYIEEIEKFYEKTNDEYFITFVANGVYALWRKWLMNGQDKSIEEIHELIRKIVTI | not soluble
14 | MKNMTALSPSELPRLIDFLEQRNEFAVYAGRVHIHPVTRFCIYWLLLTMTRIREAALMEWSELDGEVWRIPAERKKERRGHDVPLSRAMRWVLDQARGLNVNGRFVFESVNFQGHINKESPHVAMRRSGLDTTAHGLRSLARTYLREVLKVYNDVAEKLLAHSLGLEHHHHHH | not soluble
15 | MRYVVGHKNPDTDSIASAIVLAYFLDCYPARLGDINPETEFVLRKFGVMEPELIESAKGKEIILVDHSEKSQSFDDLEEGKLIAIIDHHKVGLTTTEPILYYAKPVGSTATVIAELYFKDAIDLIGGKKKELKPDLAGLLLSAIISDTVLFKSPTTTDLDKEMAKKLAEIAGISNIEEFGMEILKAKSVVGKLKPEEIINMDFKNFDFNGKKVGIGQVEVIDVSEVESKKEDIYKLLEEKLKNEGYDLIVFLITDIMKEGSEALVVGNKEMFEKAFNVKVEGNSVFLEGVMSRKKQVVPPLERAYNG | soluble
16 | MAVMSYIDAITLAMREEMERDEKVFVLGEDVGKKGGVFKATHGLYDQFGEDRALDTPLAESAIAGVAIGAAMYGMRPIAEMQFADFIMPAVNQIVSEAAKIRYRSNNDWTCPITVRAPFGGGVHGALYHSQSVEAMFANQPGLKIVIPSTPYDAKGLLKAAIRDEDPVLFFEHKRAYRLIKGEVPEDDYVLPIGKADVKREGDDITVITYGLCVHFALQAAEKLAQDGISAHILDLRTVYPLDKEAIIEAASKTGKVLLVTEDNKEGSIMSEVAAIIAENCLFDLDAPIARLAGPDVPAMPYAPTMEKFFMVNPDKVEKAMRELAEF | not soluble
17 | MKTKQTIAASTLALAMIAGANSAHAEVNDATPQQSTGDRLAEIKQHKQGLDAKLQQHKENVDQTLNELNKVKENVDTKVNELHERKQVADEKINEIKQHKQELDAKLQQDKQIAEDKIAEIKEHKKQVEDKVAEVKEHKQNIDNKVNEIKEHKQTVDEKVNEMKQHKENIDQKVNELKEVKKQVDEKLAELKKAKQTAEDKLAELKENKPNTGNTLEELKKIKSNLDSLSANLELAKQDVKNKLAALQEARQDLINKINEIKQSKQTVSDDLSKKKQDLDIKINDFKHTEKKIDDKLAEIHTTKQNIDNKINEVSQSKQTETKTGTTNANNNARELPNAGSKQSNNMALGMLSVLGGILLVTRNKIKTLFSK | not soluble
18 | MGSDKIHHHHHHMNAETPQNLMVASLQAPPVRTVVADPQSVHAAIESRFCCREFLADPVERETMERILRVASWAPSGSNNQPWKVYVVQGASRAALSQKVRAAQDALSQDPTLADNYREPYQYYPVEWVSPYIERRRACGFGLYGVLNIARGDRVRMNEQLLRNFDFFGAPVGIFFTNDEILAEGALVDTAMFVQNVMLAARAEGLHTCVQAAWNRFSSVVLPHIGAQGERLVCALALGHADVDAPVNTFRPDRADPASFTAWLD | not soluble
19 | GPGSMSASNSCTVEEVRKEYAKLLDPQEPLDSRMRELYRLKEDCLKTVAGVTVILEAIDTTDSVLLQHELAYNAGQSGREEAVPELERILRTTSYDVVTRHEAAEALGAIGSPLALQVLETHSAPTTEPEASIRETCELALARIAMKETKGDAAVAPPSGCEFVSVDPSPAFSALYSSTDEPVPLTVEELEAVLLDTSGRTRLFRRYMAMFTLRNLATEAAVAALCRGLREDTISALFRHEVAFVLGQLERPSSQPALIAALKDEEEAPMVRHEAAEALGAIADPATLPVLESYATHHEPIVRDSCVVALEMHKYWAHFNSLAHQQQEA | soluble
20 | MGSDKIHHHHHHMSTAIRYLRLYLHRPAAQGGGRRGIGYLSQYGDILRVSFDEDYIADPQRPTLSLSYRGANEADTQRILRSARDARLVRTDGRWPAYFQNLLPEGHNRDRLARERGCAPDDEFELLAAAGHDLMGALEVEPVPAQEGVPDVVRYWHTTQGLDVLEPGFVEYPVEDAASLPGVVTKFSAVQDGRRYLVKRRGAAGSVILKLPTTAHPDLVANEFTCYQLAGSLGLHCAQARIITRAEAELPEAVPLDDILAVQRFDHLADGTRVHMEEFNQALGYAPRQKYGKGLLQDWATMLRVVDRLSDQPVQDTREFLARMVAFILMGNTDAHLKNWALVYPDGHTPRLAPLYDPVCVAAFFEGATEHQYAVNRAIDRSMRALDWDALQALIKTAGLLRIPRHLALLRDLVRRAQADWPALLADAPSTLQRTVQARLAGGVALTHP | not soluble
